Laboratory results reported in publication PMC3775154.

Key:
Assay in all cases: SPR
[1] = molecular target: recombinant human FcγRIIb (human) (UniProt P31994)
[2] = molecular target: recombinant human FcγRIa (human) (UniProt P12314)
[3] = molecular target: recombinant human FcγRIIIa V158 (human)
[4] = molecular target: recombinant human FcRn (human) (UniProt P55899)
[5] = molecular target: recombinant human FcγRIIIb (human) (UniProt O75015)
[6] = molecular target: recombinant human FcγRIIIa F158 (human) (UniProt P08637)

Sequence of recombinant human FcγRIIIa V158 (human) (P08637 17-208): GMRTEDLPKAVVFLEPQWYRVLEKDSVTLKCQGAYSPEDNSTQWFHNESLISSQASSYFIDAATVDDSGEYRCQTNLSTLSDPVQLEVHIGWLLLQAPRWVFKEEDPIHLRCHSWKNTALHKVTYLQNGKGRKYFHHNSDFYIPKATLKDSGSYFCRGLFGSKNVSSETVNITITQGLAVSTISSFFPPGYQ
Sequence of UniProt P31994 (P31994 43-310): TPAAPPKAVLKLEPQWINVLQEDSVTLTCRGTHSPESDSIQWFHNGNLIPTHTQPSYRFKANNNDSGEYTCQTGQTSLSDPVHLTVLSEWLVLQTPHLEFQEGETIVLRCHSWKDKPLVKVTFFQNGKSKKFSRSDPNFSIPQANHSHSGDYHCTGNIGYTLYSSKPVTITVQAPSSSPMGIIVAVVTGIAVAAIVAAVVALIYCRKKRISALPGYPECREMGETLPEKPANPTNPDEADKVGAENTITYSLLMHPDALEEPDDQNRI
Sequence of UniProt O75015 (O75015 17-200): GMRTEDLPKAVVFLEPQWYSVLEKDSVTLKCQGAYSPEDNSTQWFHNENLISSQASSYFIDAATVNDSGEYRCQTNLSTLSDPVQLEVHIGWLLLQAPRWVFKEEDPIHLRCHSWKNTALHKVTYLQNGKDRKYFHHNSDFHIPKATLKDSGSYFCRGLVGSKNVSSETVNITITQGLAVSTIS
Sequence of UniProt P12314 (P12314 16-374): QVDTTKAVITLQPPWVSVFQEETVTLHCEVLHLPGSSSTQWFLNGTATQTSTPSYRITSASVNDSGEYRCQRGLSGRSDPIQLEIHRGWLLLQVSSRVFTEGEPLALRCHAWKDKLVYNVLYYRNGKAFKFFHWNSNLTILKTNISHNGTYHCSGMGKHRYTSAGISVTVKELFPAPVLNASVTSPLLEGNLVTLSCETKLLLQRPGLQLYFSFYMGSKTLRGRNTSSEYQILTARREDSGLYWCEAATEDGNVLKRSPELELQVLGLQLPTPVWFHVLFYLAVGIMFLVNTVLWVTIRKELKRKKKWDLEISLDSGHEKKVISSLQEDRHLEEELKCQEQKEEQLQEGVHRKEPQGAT
Sequence of UniProt P55899 (P55899 24-297): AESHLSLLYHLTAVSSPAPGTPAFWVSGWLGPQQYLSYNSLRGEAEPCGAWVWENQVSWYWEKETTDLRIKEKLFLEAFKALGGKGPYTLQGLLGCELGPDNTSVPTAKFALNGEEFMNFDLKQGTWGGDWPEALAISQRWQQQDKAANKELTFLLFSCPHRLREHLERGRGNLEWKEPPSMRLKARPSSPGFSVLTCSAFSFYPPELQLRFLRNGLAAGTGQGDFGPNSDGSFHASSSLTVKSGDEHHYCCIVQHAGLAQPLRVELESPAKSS

Row | Kd [1] [µM] | Kd [2] [µM] | Kd [3] [µM] | Kd [4] [µM] | Kd [5] [µM] | Kd [6] [µM] | Substance
1 | 11 to 12.7 | 0.0109 to 0.0124 | 4.2 to 5 | 0.54 to 0.58 | 9.9 to 12.4 | 8.5 to 10.9 | proposed biosimilar rituximab GP2013 (antibody)
2 | 11.4 to 12.8 | 0.0104 to 0.0118 | 3.5 to 4.9 | 0.55 to 0.58 | 9.2 to 11.7 | 7.4 to 10.3 | originator rituximab (antibody)
